Measurements: paper PMC8927968, “Lysine Methylation Modulates the Interaction of Archaeal Chromatin Protein Cren7 With DNA”
Changes are numbered by the printed parent chain.

Key:
[1] = system: rSis7d; experiment: BLI; conditions: BLI: 20 mM Tris-HCl pH 6.8, 100 mM KCl, 1 mM EDTA, 0.05% Tween-20, 30°C; pull-down: 10 mM HEPES pH 7.6, 100 mM KCl, 2.5 mM MgCl2, 0.1 mg/mL BSA, room …
[2] = system: Sis7dWT (native, methylated) (Sulfolobus islandicus E234); experiment: BLI; conditions: BLI: 20 mM Tris-HCl pH 6.8, 100 mM KCl, 1 mM EDTA, 0.05% Tween-20, 30°C; pull-down: 10 mM HEPES pH 7.6, 100 mM KCl, 2.5 mM MgCl2, 0.1 mg/mL BSA, room …
[3] = system: Sis7dΔaKMT (native, unmodified) (Sulfolobus islandicus ΔaKMT); experiment: BLI; conditions: BLI: 20 mM Tris-HCl pH 6.8, 100 mM KCl, 1 mM EDTA, 0.05% Tween-20, 30°C; pull-down: 10 mM HEPES pH 7.6, 100 mM KCl, 2.5 mM MgCl2, 0.1 mg/mL BSA, room …
[4] = target: T1, Cren7 K48Q K48Q (UniProt C3NHU3); experiment: DNA-cellulose pull-down (bridging); conditions: BLI: 20 mM Tris-HCl pH 6.8, 100 mM KCl, 1 mM EDTA, 0.05% Tween-20, 30°C; pull-down: 10 mM HEPES pH 7.6, 100 mM KCl, 2.5 mM MgCl2, 0.1 mg/mL BSA, room …
T1 sequence: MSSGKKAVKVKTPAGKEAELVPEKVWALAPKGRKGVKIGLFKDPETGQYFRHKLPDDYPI

[5] = target: T2, Cren7 K24Q K24Q (UniProt C3NHU3); experiment: DNA-cellulose pull-down (bridging); conditions: BLI: 20 mM Tris-HCl pH 6.8, 100 mM KCl, 1 mM EDTA, 0.05% Tween-20, 30°C; pull-down: 10 mM HEPES pH 7.6, 100 mM KCl, 2.5 mM MgCl2, 0.1 mg/mL BSA, room …
T2 sequence: T1 sequence with K24Q, Q48K

[6] = target: T3, Cren7 K31Q K31Q (UniProt C3NHU3); experiment: DNA-cellulose pull-down (bridging); conditions: BLI: 20 mM Tris-HCl pH 6.8, 100 mM KCl, 1 mM EDTA, 0.05% Tween-20, 30°C; pull-down: 10 mM HEPES pH 7.6, 100 mM KCl, 2.5 mM MgCl2, 0.1 mg/mL BSA, room …
T3 sequence: T1 sequence with K31Q, Q48K

[7] = target: T4, Cren7WT (native, methylated) (Sulfolobus islandicus E234) (UniProt C3NHU3); experiment: DNA-cellulose pull-down (bridging); conditions: BLI: 20 mM Tris-HCl pH 6.8, 100 mM KCl, 1 mM EDTA, 0.05% Tween-20, 30°C; pull-down: 10 mM HEPES pH 7.6, 100 mM KCl, 2.5 mM MgCl2, 0.1 mg/mL BSA, room …
T4 sequence: T1 sequence with Q48K

[8] = target: T5, rCren7 (UniProt C3NHU3 1-60); experiment: DNA-cellulose pull-down (bridging); conditions: dsDNA-cellulose, 2.5 mM MgCl2, BLI: 20 mM Tris-HCl pH 6.8, 100 mM KCl, 1 mM EDTA, 0.05% Tween-20, 30°C, pull-down: 10 mM HEPES pH 7.6, 100 mM KCl, 2.5 mM MgCl2, 0.1 mg/mL BSA, room …
T5 sequence: T1 sequence with Q48K

[9] = target: T6, Cren7 K42Q K42Q (UniProt C3NHU3); experiment: DNA-cellulose pull-down (bridging); conditions: BLI: 20 mM Tris-HCl pH 6.8, 100 mM KCl, 1 mM EDTA, 0.05% Tween-20, 30°C; pull-down: 10 mM HEPES pH 7.6, 100 mM KCl, 2.5 mM MgCl2, 0.1 mg/mL BSA, room …
T6 sequence: T1 sequence with K42Q, Q48K

[10] = target: T7, Cren7 K24Q (UniProt C3NHU3 1-60, K24Q); experiment: BLI; BLI: 20 mM Tris-HCl pH 6.8, 100 mM KCl, 1 mM EDTA, 0.05% Tween-20, 30°C; pull-down: 10 mM HEPES pH 7.6, 100 mM KCl, 2.5 mM MgCl2, 0.1 mg/mL BSA, room temperature; conditions: protein: recombinant; label: 5' biotin on strand 1; blunt
T7 sequence: T1 sequence with K24Q, Q48K

[11] = target: T8, Cren7 K31Q (UniProt C3NHU3 1-60, K31Q); experiment: as above; conditions: protein: recombinant; label: 5' biotin on strand 1; blunt
T8 sequence: T1 sequence with K31Q, Q48K

[12] = target: T9, Cren7 K42Q (UniProt C3NHU3 1-60, K42Q); experiment: as above; conditions: protein: recombinant; label: 5' biotin on strand 1; blunt
T9 sequence: T1 sequence with K42Q, Q48K

[13] = target: T10, Cren7 K48Q (UniProt C3NHU3 1-60, K48Q); experiment: as above; conditions: protein: recombinant; label: 5' biotin on strand 1; blunt
T10 sequence: T1 sequence

[14] = target: T5, rCren7; experiment: as above; conditions: protein: recombinant; label: 5' biotin on strand 1; blunt

## TAGAGCCCTAGTCTTCCAAACTAGCTACGC (double strand) [D30]
[1]
  Kd: 1040 nM
[2]
  Kd: 1640 nM
[3]
  Kd: 1370 nM

## pBR322
[4]
  binding signal: < 10 % of rCren7
[5]
  binding signal: < 10 % of rCren7
[6]
  binding signal: < 10 % of rCren7
[7]
  binding signal (% (barely detected)): < 10
[8]; 5 uM protein
  binding signal (% input pulled down): 18
[8]; 10 uM protein
  binding signal (% input pulled down): 35
[9]
  binding signal: < 10 % of rCren7

B1: D30 (dsDNA)
DNA 1: TAGAGCCCTAGTCTTCCAAACTAGCTACGC
DNA 2: GCGTAGCTAGTTTGGAAGACTAGGGCTCTA
[10]
  Kd: 217 nM
[11]
  Kd: 103 nM
[12]
  Kd: 1120 nM
[13]
  Kd: 199 nM
[14]
  Kd: 125 nM
